Consider one substance from patent publication US7785835.

The target in experiment [1] is vitronectin (UniProt P04004). In words: cell-based or functional assay.
The target of experiment [2] is vitronectin (UniProt P04004). In words: competition binding assay, displacement of [^125I]-IGF-II from VN-coated wells (300 ng/well).

vitronectin, sequence (P04004 20-478 limits assumed): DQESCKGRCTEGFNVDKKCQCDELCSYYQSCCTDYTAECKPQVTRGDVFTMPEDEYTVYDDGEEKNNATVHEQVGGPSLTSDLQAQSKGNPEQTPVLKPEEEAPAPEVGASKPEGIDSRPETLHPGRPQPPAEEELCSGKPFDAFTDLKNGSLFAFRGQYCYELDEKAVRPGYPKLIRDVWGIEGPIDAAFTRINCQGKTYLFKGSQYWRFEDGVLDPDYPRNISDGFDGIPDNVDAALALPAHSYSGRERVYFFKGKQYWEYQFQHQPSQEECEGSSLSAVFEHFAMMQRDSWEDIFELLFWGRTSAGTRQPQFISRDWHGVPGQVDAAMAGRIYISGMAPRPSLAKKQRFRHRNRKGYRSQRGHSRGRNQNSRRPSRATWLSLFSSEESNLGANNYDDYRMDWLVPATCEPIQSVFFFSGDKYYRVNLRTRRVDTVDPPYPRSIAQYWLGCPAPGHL
insulin-like growth factor-II, sequence (P01344 25-91 limits assumed): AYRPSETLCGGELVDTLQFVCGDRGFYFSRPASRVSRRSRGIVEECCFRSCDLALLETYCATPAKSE

The IC50 is the concentration that inhibits the measured activity by half. A lower IC50 goes with higher potency. In the experiment with vitronectin [1], “insulin-like growth factor-II (from UniProt P01344 25-91) (ligand)” displayed an incorporation of [^3H]-leucine into protein in human keratinocytes, % above control; 3 ng IGF-II pre-bound to VN coated wells of 19%; an incorporation of [^3H]-leucine into protein in human keratinocytes, % above control; 10 ng IGF-II pre-bound to VN coated wells of 29%; an incorporation of [^3H]-leucine into protein in human keratinocytes, % above control; 30 ng IGF-II pre-bound to VN coated wells of 39%; an incorporation of [^3H]-leucine into protein in human keratinocytes, % above control; 100 ng IGF-II pre-bound to VN coated wells of 51%. Moreover, in the experiment with vitronectin [1], the incorporation of [^3H]-leucine into protein in human keratinocytes, % above control; 300 ng IGF-II pre-bound to VN coated wells turned out to be 70%; the incorporation of [^3H]-leucine into protein in human keratinocytes, % above control; 1000 ng IGF-II pre-bound to VN coated wells came out at 101%; the synergistic effect in protein synthesis above the calculated additive effect of VN alone and IGF-II alone was 5 to 46%. The substance further had an IC50 in the experiment with vitronectin [2] of 9.6 nM.
